Common to all, as to assay: SPR, antibody captured, C2 as analyte;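 note: biacore SPR at 37 °C, anti-C2 mAbs captured via goat anti-human IgG on CM5 chips, double-referenced sensorgrams fit to a 1:1 kinetic or steady-state model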
A general note: In SPR one partner is held on a chip, and binding of the other changes the refractive index at the surface.

The target of assay [1] is T1, human C2 L701A (human, UniProt P06681 21-752).
T1 sequence: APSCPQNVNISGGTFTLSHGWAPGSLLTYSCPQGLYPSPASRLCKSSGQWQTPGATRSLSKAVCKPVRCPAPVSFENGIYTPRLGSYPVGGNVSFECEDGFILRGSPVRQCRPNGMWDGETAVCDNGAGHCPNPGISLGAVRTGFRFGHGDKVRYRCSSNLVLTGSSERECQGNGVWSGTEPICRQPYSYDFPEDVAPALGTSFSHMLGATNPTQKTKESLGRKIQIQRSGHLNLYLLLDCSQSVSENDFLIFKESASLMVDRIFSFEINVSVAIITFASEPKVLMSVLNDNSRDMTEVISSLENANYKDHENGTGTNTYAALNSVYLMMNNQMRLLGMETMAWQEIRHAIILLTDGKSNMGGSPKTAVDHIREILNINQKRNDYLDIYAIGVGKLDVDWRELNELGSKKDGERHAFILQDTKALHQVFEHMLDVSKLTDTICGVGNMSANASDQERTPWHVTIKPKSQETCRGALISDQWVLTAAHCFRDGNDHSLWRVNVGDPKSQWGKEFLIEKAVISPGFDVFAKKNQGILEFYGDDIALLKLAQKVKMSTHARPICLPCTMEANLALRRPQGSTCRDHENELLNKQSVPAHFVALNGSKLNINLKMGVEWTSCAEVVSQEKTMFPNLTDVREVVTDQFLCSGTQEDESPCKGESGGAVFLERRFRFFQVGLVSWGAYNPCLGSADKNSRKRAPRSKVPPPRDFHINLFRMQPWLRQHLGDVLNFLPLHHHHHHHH

For assay [2], the target named is T2, human C2 K244A (human, UniProt P06681 21-752).
T2 sequence: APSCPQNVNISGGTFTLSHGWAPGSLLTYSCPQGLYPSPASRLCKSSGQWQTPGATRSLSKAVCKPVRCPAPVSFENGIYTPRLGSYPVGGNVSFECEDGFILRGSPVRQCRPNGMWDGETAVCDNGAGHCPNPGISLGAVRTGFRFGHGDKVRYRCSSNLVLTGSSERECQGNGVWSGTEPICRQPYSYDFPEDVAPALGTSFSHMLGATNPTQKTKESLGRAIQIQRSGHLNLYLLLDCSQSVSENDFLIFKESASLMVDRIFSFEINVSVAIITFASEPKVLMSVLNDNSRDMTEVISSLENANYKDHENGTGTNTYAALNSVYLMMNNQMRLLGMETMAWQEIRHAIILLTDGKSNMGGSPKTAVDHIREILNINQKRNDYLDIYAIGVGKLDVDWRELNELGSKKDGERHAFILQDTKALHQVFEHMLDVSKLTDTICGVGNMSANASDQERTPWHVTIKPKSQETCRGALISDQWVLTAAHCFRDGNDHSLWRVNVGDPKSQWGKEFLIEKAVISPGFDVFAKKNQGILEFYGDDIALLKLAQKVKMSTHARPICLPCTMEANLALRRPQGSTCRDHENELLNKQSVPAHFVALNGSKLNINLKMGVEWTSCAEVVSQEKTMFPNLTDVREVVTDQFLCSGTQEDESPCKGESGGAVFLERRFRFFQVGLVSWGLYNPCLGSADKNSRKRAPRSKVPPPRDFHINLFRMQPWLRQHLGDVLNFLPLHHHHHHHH

In assay [3] the target is T3, human C2 E450A (human, UniProt P06681 21-752).
T3 sequence: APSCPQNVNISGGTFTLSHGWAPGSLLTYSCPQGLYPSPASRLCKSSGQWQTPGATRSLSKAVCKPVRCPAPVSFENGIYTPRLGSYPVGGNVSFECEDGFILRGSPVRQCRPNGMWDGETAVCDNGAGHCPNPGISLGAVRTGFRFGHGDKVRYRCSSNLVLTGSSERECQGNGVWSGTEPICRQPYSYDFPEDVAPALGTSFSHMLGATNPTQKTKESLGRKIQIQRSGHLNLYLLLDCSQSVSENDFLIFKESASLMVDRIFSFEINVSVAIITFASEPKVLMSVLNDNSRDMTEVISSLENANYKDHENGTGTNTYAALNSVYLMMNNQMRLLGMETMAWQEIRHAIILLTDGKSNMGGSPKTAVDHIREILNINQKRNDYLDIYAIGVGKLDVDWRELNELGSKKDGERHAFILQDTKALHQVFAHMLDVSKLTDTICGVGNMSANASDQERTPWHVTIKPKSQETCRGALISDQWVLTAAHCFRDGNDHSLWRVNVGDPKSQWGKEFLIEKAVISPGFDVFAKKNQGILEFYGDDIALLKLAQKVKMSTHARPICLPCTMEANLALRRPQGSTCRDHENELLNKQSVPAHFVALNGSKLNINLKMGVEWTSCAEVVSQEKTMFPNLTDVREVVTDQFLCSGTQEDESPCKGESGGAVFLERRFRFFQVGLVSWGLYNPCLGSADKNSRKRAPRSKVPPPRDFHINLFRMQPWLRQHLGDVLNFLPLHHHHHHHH

The target in assay [4] is T4, human C2 N471A (human, UniProt P06681 21-752).
T4 sequence: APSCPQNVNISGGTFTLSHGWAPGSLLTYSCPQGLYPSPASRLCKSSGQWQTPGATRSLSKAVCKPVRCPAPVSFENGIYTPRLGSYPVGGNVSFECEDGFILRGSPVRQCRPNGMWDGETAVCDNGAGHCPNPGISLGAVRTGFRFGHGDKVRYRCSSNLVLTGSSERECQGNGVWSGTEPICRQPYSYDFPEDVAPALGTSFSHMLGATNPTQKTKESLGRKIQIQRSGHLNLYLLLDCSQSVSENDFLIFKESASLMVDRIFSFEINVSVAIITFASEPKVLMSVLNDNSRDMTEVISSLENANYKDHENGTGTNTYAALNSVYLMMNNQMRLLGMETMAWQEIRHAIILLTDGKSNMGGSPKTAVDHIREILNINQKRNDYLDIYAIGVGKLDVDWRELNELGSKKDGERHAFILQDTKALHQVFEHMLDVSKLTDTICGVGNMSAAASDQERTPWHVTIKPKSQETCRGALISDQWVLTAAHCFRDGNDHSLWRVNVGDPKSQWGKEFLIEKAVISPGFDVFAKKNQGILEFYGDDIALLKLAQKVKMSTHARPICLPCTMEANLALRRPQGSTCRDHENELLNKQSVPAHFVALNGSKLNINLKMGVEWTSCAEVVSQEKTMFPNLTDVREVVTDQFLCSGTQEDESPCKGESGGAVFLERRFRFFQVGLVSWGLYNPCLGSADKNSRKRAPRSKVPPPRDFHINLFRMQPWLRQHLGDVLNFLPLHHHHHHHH

B1: RF16-226 (antibody, human IgG4 S228P, lambda)
heavy: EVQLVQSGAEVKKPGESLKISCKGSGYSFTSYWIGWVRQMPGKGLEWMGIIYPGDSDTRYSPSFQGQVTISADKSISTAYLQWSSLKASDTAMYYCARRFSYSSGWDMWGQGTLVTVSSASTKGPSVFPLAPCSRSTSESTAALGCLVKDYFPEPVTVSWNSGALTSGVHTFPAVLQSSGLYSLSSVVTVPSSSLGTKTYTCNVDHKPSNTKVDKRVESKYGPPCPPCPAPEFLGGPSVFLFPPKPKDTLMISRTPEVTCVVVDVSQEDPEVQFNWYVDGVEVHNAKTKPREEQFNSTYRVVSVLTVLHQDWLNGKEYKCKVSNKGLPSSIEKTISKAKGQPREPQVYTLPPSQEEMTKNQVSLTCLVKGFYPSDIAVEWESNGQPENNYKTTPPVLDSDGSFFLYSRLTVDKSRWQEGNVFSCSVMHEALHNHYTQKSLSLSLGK
light: SYELTQPPSVSVSPGQTARITCSGDALTSKYVAWYQQKSGLAPLLVIYEDTRRPSGIPAKFSGSSSGSVATLTISGAHGDDEADYYCYSTDASGHQRVFGGGTKLTVLSQPKAAPSVTLFPPSSEELQANKATLVCLISDFYPGAVTVAWKADGSPVKAGVETTKPSKQSNNKYAASSYLSLTPEQWKSHRSYSCQVTHEGSTVEKTVAPTECS
notes: pH-dependent anti-C2 antibody from a phage display library; also called WT
A word on the Kd: it is the free concentration of one partner at which half of the binding sites on the other are occupied at equilibrium, for simple one-to-one binding. Low readings indicate tighter binding, high ones weaker binding. For the molecule B1, the Kd was 165 nM in assay [1], 22.7 nM in assay [2], 4.2 nM in assay [3] and 9.7 nM in assay [4].

Values taken from patent US20220332804A1 (CSL INNOVATION, published 2022).
